From the DeepSol protein solubility set

Test: soluble on expression in E. coli; label from the status in PepcDB or PDB records

Sequence | soluble on expression in E. coli
MTEYGGGEVYLLDLDSVVDGSALRMISSGGLRGRVLIHSALVDYLYSEAKRGRSAGYAGLAELSRLMDAGVGDVEIVVVEDDARVQPRDEGELKSVLRRYALRVGATLVTSDPVQARAARALGVSVLFTGRSRTGRIRIEEFFDGRTMSVHLKEGVPPLAKVGKPGSWMFVSLSDKPLTRAEIEEIAREIIEASALEEEGFIEIDRSGSTIVQLKDYRIVITRPPLSDGWEVTAVKPVAKLRLEDYSLPEKLYNRLLERAEGILIAGAPGMGKTTFAQALATFYAEQGKVVKTIESPRDMRLPPNVTQYSKNYADLGELHDILLLSRPDYTVYDELRSDEDFQLYVDLRLAGIGMIGVVHATTPIDAVQRFLRRVELGMIPSIIDTVIFIDSGEVSKVYELSITVKLPTGLREAELSRPVVEVRDFITGELEYEIYTFGEQTMVVPVRERRGRGEAAILGAIRKLLPDAEVEVRDETLIVRLPPRSSRVTARRLKRAKKLAEKHGYDIRFMPL | soluble
MTFLFDCLILLNILIATCQAIGRTQSTAIEGVLLCEDGPAKGVLIKLYDHDTVSPDELMDSAKTDADGHFRLSGTADEISGIEPKINIYHDCDDGILPCQRRITIFVPSKYVSNTKQPSETFNLGRLQLAGKYAGESRDCLH | soluble
MTGNEHSAIETYECDVLVAGSGASGMSAAITARYRGLDVLIVEKEPRFGGTTARSGGWLWIPGTSLAKAYGIEETPEQARTYLRHEAGNNFDGARIDAFLSAGPEAVDFFTTRTALRFDMPLVFPDYHAEAPGGAQGGRSMVTRPFDGRELGEQIRTLGMPLPELTVFGMMLGSGKEIIHFMRVTKSLTSAVYVAKRLSRHLMDVLHYGRGMTLTNGNALAGRLAKSALDLKIPMWLSSPVRELTVENGAVTGAIVSREGRKVRVRARQGVVLACGGFPHDVERRKKMFPHAPTGNEHFSPGPIGNTGDGLRLAESAGGHVEDRLPNAAAWVPVSLTTRKDGSKGVMPHFIDRAKPGVIAVMRDGRRFANEGNSYHDFVQAMVKAAKPGEEIAAYLVCDHKTLRKYGLGCVPPFPMPLGHHLSTGYLMRGDTLEALAAKAGIDATAFAETVRQFNTTAPLGHDAAFGKGSKAYNRYQGDALHGPNPCVAPIENGPFYAIKMVIGDLGTYAGIITDENARALDAEGRVIPGLYAAGNDMASIMGGNYPGAGITLGPALTFGYIAGRHLADSAAKRNAALEHHHHHH | not soluble
MTGPVTRADPTPGLRTGRRPGNPDTRSRILAAARKLFAQNGFDKTSVRSVATGAGVDSALIHHYFGTKRELFLASVDIPVDPTQVIAPVLDIPTGEVGSHLARAVFSVWESPHKPAVVAAFRSAMAGNEPNLIRTFLLEVVLRDLGPRVDEPPGTGMLRMQLVASQMAGVLVTRYILEFEPLASLPVDDLVAIVGPTLQRYLTGALP | not soluble
MTGTLLYTKNSALDRSEESGDLSPAKEFSIGPGFLKYVLRVRNEIAAAEYDMSVPTGFEADANCDYCFEQDTCMVVSGRLDQESKAGQLGEPLPEPERAYFERLYRAIEEERREVHAEYRKLWEQSAAERADDDRALVDLDPLGREPLDGGRWALSARRTSDAVSKIREGDRVLASDGHPTQGTAELATVRHLDDEIVVVADEPFELRRIDVYPSELGVDRQLTALHDAVLRGDPDRKDVLFGRREPSFVGDHRPIIDNNESQNEAVNRALAAEDFALIHGPPGTGKTYTLAQTVQALVARGDRVLLSAFTNRAVDNAIEALEAQGFTDVLRWGSESGVRDDMQSYRFDRTGDPRERAAALRDAQVVAATTAACGSRALKQQQFDVAVIDEAGQLTEPGTFLATNRADRFVLVGDHEQLPPVVRAENDLQTSLFEQLIDDYPDAAVMLDRQYRMSQRIQYFASREFYDGQLRPANAEVASQRLADLDGVDVSTLPSALRDAVSFVDPGGSADGNTNPTEADRVADIVSAYLDAGVDPDDIGVIAPFRAQVAELSRRIDEVTVDTVDRFQGSSKEVIIVSFVATGELSSPIFEDYRRVNVALTRAKKALVLVGDATALRSVPFYERMLEWAGLEHHHHHH | not soluble
MTHNIHDNISQWMKSNEETPIVMSSRIRLARNLENHVHPLMYATENDGFRVINEVQDALPNFELMRLDQMDQQSKMKMVAKHLISPELIKQPAAAVLVNDDESLSVMINEEDHIRIQAMGTDTTLQALYNQASSIDDELDRSLDISYDEQLGYLTTCPTNIGTGMRASVMLHLPGLSIMKRMTRIAQTINRFGYTIRGIYGEGSQVYGHTYQVSNQLTLGKSELEIIETLTEVVNQIIHEEKQIRQKLDTYNQLETQDRVFRSLGILQNCRMITMEEASYRLSEVKLGIDLNYIELQNFKFNELMVAIQSPFLLDEEDDKSVKEKRADILREHIK | not soluble
MTHSHRRHDISDRIWSLLEGHLPGREGAWGGVATDNRQFINAVFWIIRTGAPWRDLPPDYGGWSNTHRRFIRWRDKGIWEKLLEILIDDPDYEWLIMDASHCKVHPHASGARGGNQDMNRTKGGSTPRYIWPWMRMVCRSESLLHKVPLLIARRLAA | not soluble
MTIGQVNGRARIKSECGKDQKCMPLEDKWLLVPAFLKVRGLVKQHLVSFDHFVQEEIRSIMLSNQKITSDANPNFYLKYLDIRIGKPSSEEGLNMTHDKITPQECRLRDMTYSAPISVDIEYTRGNQRVFKKDLIIGRMPIMLRSSKCILRDLAEEELARVQECPYDPGGYFVVKGSEKVILIQEQLSKNRIMVGRNSSKELQCEVLSSTSERKSKTYVTMKKGKYSVRHNQLTDDVPVSIIFKAMGVESDFDIVSTIGHEEKYVSAFAQTLEESINAGVYTQQQALAYVTSKVKARKFTPFGSLPGTSVSVLTPPKEHEAVDFLSNSMITHIACPDGNFKMKAIYLGLMTRRLIQTELGENGLDDRDFYGNKRLELAGSLLSLLFEDVFKRFNSELKRIADNALMKTMAAPLDIVKHMRQDMITNTIVNAMSTGNWIIKRFRMERLGVTQVLSRLSYISALGMMTRINSTFEKTRKVSGPRSLQPSQWGMLCPSDTPEGEACGLVKNLALISHITTDSDEKPVLRLLLNSGVEDLHNVHFSHVNKPENTLIFLNGVLIGTAVDPERVVKAVRDLRRSGLLSEFVSVSRSLTNRSVFISSDGGRLCRPYIIVKNGTPMLTQAHVQELKEGKMIFEDFVDDGIVEYLDVNEMNDALIAVYGREIGPETTHLEIEPFTLLGVCAGLIPYPHHNQSPRNTYQCAMGKQAMGTIAYNQQKRIDSIMYLLCYPQRPLVKSKTIELTNFEKLPAGANGIIAVMSYSGYDIEDALVLNKASLDRGYGRCLVYKHVKGTAKKYPNQTFDRLLGPALDPNTRKPIFKHKNLDQEGIVFAGARIMPKQTIINKHMPVVSGESGPGASASANTIGIAGRQVDYKDVSITYKTPTPSYAERVLLTYNEDEAHLFKVLLRQTRRPELGDKFSSRHGQKGVCGLIAQQEDMPFNDLGMVPDMIMNPHGYPSRMTVGKLMELLSGKAGVVNGTYHYGTAFGGDQVKDVCEELAACGYNYMGKDMLTSGITGQPLSAYIYFGPIYYQKLKHMVLDKMHARARGPRAALTRQPTEGRSREGGLRLGEMERDCLIAYGASMLLIERLMVSSDEFKVDVCTGCGVIGSKGWCQKCRSSKSMANIKIPYACKLLFQELQSMNIVPRLDLARYTE | not soluble
MTIKNVICDIDGVLMHDNVAVPGAAEFLHGIMDKGLPLVLLTNYPSQTGQDLANRFATAGVDVPDSVFYTSAMATADFLRRQEGKKAYVVGEGALIHELYKAGFTITDVNPDFVIVGETRSYNWDMMHKAAYFVANGARFIATNPDTHGRGFYPACGALCAGIEKISGRKPFYVGKPSPWIIRAALNKMQAHSEETVIVGDNLRTDILAGFQAGLETILVLSGVSSLDDIDSMPFRPSWIYPSVAEIDVI | soluble
MTIKTGNIRTNSLAEIYRNSPVFQNLRNPDKYKGKCGVCEFRYVCGGSRSRAYAMTGGLYGKMAGDPLEHHHHHH | not soluble
MTITGIIAEFNPFHNGHKYLLDQAEGLKIVAMSGNFMQRGEPAIVDKWTRTQMALENGADLVVELPFLVSVQAADFFGQGAMDILDRLGIDSLVFGTEEVRDYQKIADLYTEKGAEMEKFVENLPDSLSYPQKTQAMWKEFAGLDFSGNTPNHVLALAYAKAVAGRNIKLHPIQRQGAGYHSVNKDVDFASATALRQHQKDQDFLERFMPSVALFEQASKVIWEDYFPLLRYQILSNPDLTTIYQVNQEMAVRIKEAIKTAQSVEELVELVTTKRYTKARVRRLLTYILMQARESDLPEAIHVLGFTEKGRQHLKSLKGQVSLVSRIGKEPWDAMTQKADQIYQLGKPSIAEQNFGRVPIRIETN | soluble
MTITQRDASSADAICLSALGMQVFLDTYATQGIRESIAREALDAFSPQAFAHLLAEPATLIIVAESQGHLIGFAQFALRTDHPMLGIPTAAELQRLYVQERFTGRGVGRLLLEAAEQRAAAGNATLLWATVWVGNPRALGVYPRQGYEVKGSPRYVFQGETHENCLFAKAIVKAVR | not soluble
MTITSGIDVGTGAIKVVVFEVDGDQERCLGKRVERVRQRDPLKLAGDIYDDLLRETGLARADVAYCATTGEGESLTFHTGHFYSMTTHARGAIYLNPGSRAVLDTGALHGRAIRMDERGKVLAYKMTSQCASGSGQFLENIARYLGIAQDEIGSLSQRADNPEKVSGICAVLAETDVINMVSRGISSPNILRGIHESMADRLAKLLKTLGSLDGTVQMTGGLALDAGLVEAMKDAVVKAKVDVAIESHPDAIYAGAIGAALWGAFRHKRLADMAHAA | not soluble
MTKAKRTYEPWYWANEHTRLYMRRGYLLPGVSVEERVKEIAQRAEALTKVEGFGRKFLEYMARGWYSLATPIWANYGLRRGLPISCYGTYVEDDTASILRAVAEVGMMSKQGGGTSLYLGRLRPRGAPIRDNGESNGSFAFASLFDRVIEVFNQGSTRRGQCAAYLDVEHPDLEEWLSIQREHSPVQSLFWGVSVGDRWLEEMIAGDGEKRARWAKILKSRAEVGIPYLFFRDNANQKAPEVFRALGKTIWASNLCTEIMLPSSEEESFVCCLSSLNLLHYEEWKDTDAVETLVIFLDSVLDDFIEKAEGIPYMERAVRFAKRYRAIGLGVLGWHSYLQSQRIPLESPEAFRRNAEIFKTIRERAEEASRWLRKRHPEDELAGVGELKERRNATLLAIAPTKSSAFILGQVSPSIEPYTSNYYLKDLQKARVPFKNPFLEEVLREKGKDEEKVWRSILEHNGSVQHLDFLTDEEKAVFKTFAEISQMTLVNLAASRQKHIDQGQSLNLVIHPEAPPRDVNALVLHAWRSGLKALYYQFSQSVAQAYSRDLLLSCQACEG | soluble
MTKIAESKIIVGLDIGTSKIAVVVGEVLPDGVINVLGASNCPSKGIDRGGVIDLDAAVNSIQRAIEQAESVSNCQIMGVTLAISGQHITALNESGVIPLSGTVVRKEDIDAAIHIAHSIKLPDG | not soluble
MTKKQKEILFCDYFEEWVEVYKVGAIAKITLAKYYNAAKQLRDLCPKLFISDFDRREYQRIINVYAETHEKQTVKDFHHHVKACIKDLFHDGLIDKDPTYRVVIKGAEPTRAKKRKFLQKEELSKLLQSLDMSQIGFGWFVMLVAKTGMRYAEALAITPADFDWTAQTISINKTWDYKYNKGFAKTKTLSSVRTIKIDWQIVGQFKPLIKDFPEDEPIFVEKFGDGTYKRQFNSTINNFLAVKCN | not soluble
MTKQLPPGQFETEKWPILHEGDVYQFDEATWNFRLFGDVKEEVSLSYQEVMQLPKTVSTIDMHCVTTWSKFDTTFEGIAFREFLRFVELDPDVKYVKIYGYLNGDRFGYSANLPLEALMGDDALFVYRWKDKHHDWQDISPKHGYPLRFIPPATFYLWKGAKWASGIRFMKEDEPGYWEERGYSMTANPFKEERFAEWVPRIRF | not soluble
MTKVIAITGKGGTGKTAVAALLIRSLSKKGQFILAVDADADTNLPETLGCENVKTIGDAKEFLQAEITKPRPDNPDMNKESVLQSKVYEIIEEMPGYDLLVMGRPEGSGCYCYVNNLLRGIMDKLVKNYDLVVIDAEAGLEHFSRKIIRDIDDLIVVTDASRRGFRTAERIHELVNELESNIGSIHVIANKVTDANREKLVKLAEELKLNLIGMIPLDPKIEEMDIKGIPLFEIPDDSVAAVEIENIVKKLGF | not soluble
